In doi:10.1101/2024.02.21.581285 (bioRxiv, 2024):

Molecular target: the molecule itself
Experiment: cryo-EM structure

B1: D. melanogaster copia Gag protein (natural protein)
chain: not shown
- stoichiometry N: 540 monomers
